Data on one substance can be found in patent US10370642B2, “Hematopoietic progenitor cell populations having affinity for E-selectin / L-selectin” (priority 2000, dated 2019).

For test [1], the target named is T1, E-selectin (Homo sapiens, UniProt P16581).
T1 construct: stably transfected with full-length cDNA encoding human E-selectin; expressed in transfected cells
T1 sequence (P16581 22-610): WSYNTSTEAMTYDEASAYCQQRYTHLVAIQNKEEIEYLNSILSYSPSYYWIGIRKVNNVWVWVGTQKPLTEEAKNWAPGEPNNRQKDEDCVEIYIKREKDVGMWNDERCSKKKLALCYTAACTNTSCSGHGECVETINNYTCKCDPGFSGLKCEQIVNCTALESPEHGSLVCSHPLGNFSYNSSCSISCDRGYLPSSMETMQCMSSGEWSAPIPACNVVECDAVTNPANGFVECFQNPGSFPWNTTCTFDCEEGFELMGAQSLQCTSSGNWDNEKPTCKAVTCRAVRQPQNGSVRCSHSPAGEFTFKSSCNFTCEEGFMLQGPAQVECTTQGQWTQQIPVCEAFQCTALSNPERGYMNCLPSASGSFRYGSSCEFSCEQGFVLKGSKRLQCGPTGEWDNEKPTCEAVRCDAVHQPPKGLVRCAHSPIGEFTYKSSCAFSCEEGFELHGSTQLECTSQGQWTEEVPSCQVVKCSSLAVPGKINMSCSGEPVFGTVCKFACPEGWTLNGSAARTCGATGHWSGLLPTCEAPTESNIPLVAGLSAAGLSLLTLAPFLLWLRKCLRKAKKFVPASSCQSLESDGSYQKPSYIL
Briefly: CHO-E cell rolling on immobilized immunoprecipitates, parallel-plate flow chamber. It counts as cell-based. The following applies: immunoprecipitates on plastic; 2.8 dynes/cm^2. The procedure:
CD44 was immunoprecipitated from untreated cell lysates or from cell lysates treated with N-glycosidase-F (0.8 U/ml) Vibrio cholerae neuraminidase (0.1 U/ml) or a-L-fucosidase (80 mU/ml), and PSGL-1 was immunoprecipitated from untreated cell lysates as previously described (Sackstein and Dimitroff, 2000; Dimitroff et al., 2000).
CD44 or PSGL-1 immunoprecipitates were spotted onto plastic petri dishes, fixed in 3% glutaraldehyde and incubated in 0.2M lysine to block unreactive aldehyde groups, and then non-specific binding was prevented by incubating in 100% FBS for 1 hr at RT. Fixed spots were also treated with Vibrio cholerae neuraminidase (0.1 U/ml assay medium), which was overlaid onto the spots and incubated at 37° C. for 1 hr. […] The flow rate was then increased to achieve a shear stress of 2.8 dynes/cm^2. The frequency of cells rolling per 100× magnification field was determined, and data were expressed as the mean±standard deviation of 8 fields visualized from a minimum of 3 experiments.

Test [2] concerns L-selectin. Briefly: Stamper-Woodruff assay, lymphocyte adherence to immunoprecipitated CD44 and PSGL-1. The following applies: equimolar amounts (0.75 μg CD44, 1 μg PSGL-1); 80 rpm. The class given is cell-based, rat. As to the method: (§1) These protein spots were then fixed in 3% glutaraldehyde, unreactive aldehyde groups were blocked in 0.2M lysine and slides were kept in RPMI-1640 without NaBicarbonate/2% FBS until ready for testing. Lymphocytes (10^7/ml RPMI-1640 without NaBicarbonate/5% FBS) were overlayed onto these fixed immunoprecipitates and incubated on an orbital shaker at 80 rpm for 30 min. at 4° C. The number of adherent lymphocytes was quantified by light microscopy using an ocular grid under 100× magnification (a minimum of 5 fields/slide, 2 slides/experiment, and 3 separate experiments). Data were presented as the mean number of bound lymphocytes±standard deviation. KG1a CD34 and L-selectin control immunoprecipitates were also tested in this manner. To verify the dependence for sialic acid, glutaraldehyde-fixed spots were treated with Vibrio cholerae neuraminidase (0.1 U/ml RPMI-1640 without NaBicarbonate/2% FBS for lhr at 37° C.).
(§2) Immunoaffinity purified material (0.75-3 μg/spot) was spotted onto glass slides for analyses in the Stamper-Woodruff assay (See below for assay description). For autoradiographic analysis of immunoprecipitated [^35S]-methionine-radiolabeled CD44 and PSGL-1, immunoprecipitates were spotted onto glass slides, allowed to dry and exposed Kodak BioMax-MR film for 12 h at −80° C. Densitometric analysis (optical density) of the autoradiograms was performed with a Hewlett-Packard Scanj et 5200C scanner and NIH Image processing and analysis program.

Test [3] addresses T2, L-selectin (Rattus norvegicus, UniProt P30836).
T2 construct: L-selectin naturally expressed on leukocytes; endogenous in cells; host or cells: lymphocytes (rat thoracic duct lymphocytes; human PBMC also prepared)
T2 sequence (P30836 39-372): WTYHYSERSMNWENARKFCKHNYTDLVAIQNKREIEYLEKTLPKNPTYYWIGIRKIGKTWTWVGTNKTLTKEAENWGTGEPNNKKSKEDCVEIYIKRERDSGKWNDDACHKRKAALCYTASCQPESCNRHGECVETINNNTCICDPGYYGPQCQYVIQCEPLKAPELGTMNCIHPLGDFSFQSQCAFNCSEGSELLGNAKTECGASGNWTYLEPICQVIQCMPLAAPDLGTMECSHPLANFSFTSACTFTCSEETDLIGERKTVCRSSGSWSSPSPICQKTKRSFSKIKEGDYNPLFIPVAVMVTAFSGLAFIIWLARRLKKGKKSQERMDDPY
Described as above. It counts as cell-based. The following applies: 80 rpm. The procedure: as §1, §2

The test system of test [4] is L-selectin. Description: Blot rolling assay with L-selectin-expressing lymphocytes. The class given is cell-based. The settings on record: 2.3 dynes/cm^2. The procedure:
L-selectin-expressing lymphocytes were isolated as previously described (Oxley, S. M. & Sackstein, R. (1994). Blood. 84:3299-3306; Sackstein, R., Fu, L. and Allen, K. L. (1997) Blood. 89:2773-2781), washed twice in HBSS and suspended at 2×10^7/ml in HBSS/10 mM HEPES/2mMCaCl2 (H/H/Ca^++)/10% glycerol. Cell lysate material is separated by SDS-PAGE and transferred to PVDF under standard blotting conditions. Western blots of KG1a membrane preparations stained with HECA-452, A3D8 or Hermes-1 were rendered transparent by incubating them in H/H/Ca^++/10% glycerol. To study L-selectin-mediated adhesive interactions, the blots were placed in the parallel plate flow chamber and lymphocytes were perfused into the chamber at a shear force of 2.3 dynes/cm^2 and cellular adhesive interactions are observed by video microscopy and analyzed in real time.
The number of lymphocytes rolling on and between each immunostained banding region was quantified from five independent fields under 200× magnification on the video monitor using molecular weight markers as guides to help align and visualize the proteins of interest. A minimum of 3 experiments were performed, and results were expressed as the mean of cell rolling/field.

Consider “KG1a CD44: glycoform of CD44 with HECA-452 reactive sialylated, fucosylated N-glycans, immunoprecipitated from KG1a cells with Hermes-1”, for which the “E-selectin ligand activity (CHO-E cell rolling)” value in test [1] is “exhibited E-selectin ligand activity over a range of shear stress”. The “fold greater lymphocyte binding compared with PSGL-1” value in test [2] is “up to 10 fold”. For the same substance, in test [3] (0.75 μg/spot (PSGL-1 1 μg/spot), 4° C., 100× mag.), the “Mean Number of Bound Lymphocytes” value worked out at 357.8. Moreover, the “fold higher mean number of lymphocytes bound to CD44 than to PSGL-1” value in test [3] (p<0.001) stood at 3 fold. The “L-selectin ligand activity (lymphocyte tethering and rolling) in blot rolling assay” value in test [4] is given as “supported L-selectin ligand interactions”.
